Results as given in PMC9271601 (Structure (London, England : 1993), 2022).

B1: 1D12 B cell receptor on the donor's B cell (antibody, V domains shown)
VH: QLVQSGAEVKKPGASVKVSCKASGYTFTGYYLHWVRQAPGQGLEWMGRINPDTGGTNYAQKFQGRVSMTRDMSISTHYMELSRLTSDDTAVYYCATKRGAVTAMVYYYFYGMDVWGQGTTVTVSS
VL: DIVMTQSPLSLSVTPGEPASISCRSSHSLLHLNGYNYLDWYLQKPGQSPQLLIYLGSNRASGVPDRFSGSGSGTDFTLKISRVEAEDVGIYYCMQALRTPPGLTFGGGTKVDIK
B2: 315–19-1D12 Fab (Fab, V domains shown)
VH: B1 VH
VL: B1 VL

How the values were obtained:
[1] = biological target: H3 (A/Texas/50/2012) HA probe (Influenza A virus A/Texas/50/2012 (H3N2), UniProt R4L1D1, strain, biotin (biotin protein ligase, AviTag)); assay: flow cytometry on cells
[2] = biological target: H3N2 A/Victoria/361/2011 hemagglutinin trimer, wild type (Influenza A virus A/Victoria/361/2011 …, UniProt A0A097PF39, strain); assay: BLI

Row | Binder | binding result [1] | binding result [2]
1 | B1 | binds | –
2 | B2 | – | binds
